Our source for the binding result and binding signal values is paper PMC9976917.

Holding throughout (assay): fluorescence polarization
One data set has as its target T1, ZNF410 NT (Homo sapiens, UniProt Q86VK4 1-216).
T1 sequence: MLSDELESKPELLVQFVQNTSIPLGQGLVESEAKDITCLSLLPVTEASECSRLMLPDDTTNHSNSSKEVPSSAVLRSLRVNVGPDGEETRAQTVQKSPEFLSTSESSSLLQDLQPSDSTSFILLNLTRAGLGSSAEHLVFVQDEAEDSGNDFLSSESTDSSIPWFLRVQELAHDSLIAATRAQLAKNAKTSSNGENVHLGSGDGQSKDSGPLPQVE

For data set [1], the target named is T2, ZNF410 FL seven S/T-to-D/E (Homo sapiens, UniProt Q86VK4 1-478, S148D;S154D;S155D;S157D;T158E;S160D;S161D).
T2 sequence: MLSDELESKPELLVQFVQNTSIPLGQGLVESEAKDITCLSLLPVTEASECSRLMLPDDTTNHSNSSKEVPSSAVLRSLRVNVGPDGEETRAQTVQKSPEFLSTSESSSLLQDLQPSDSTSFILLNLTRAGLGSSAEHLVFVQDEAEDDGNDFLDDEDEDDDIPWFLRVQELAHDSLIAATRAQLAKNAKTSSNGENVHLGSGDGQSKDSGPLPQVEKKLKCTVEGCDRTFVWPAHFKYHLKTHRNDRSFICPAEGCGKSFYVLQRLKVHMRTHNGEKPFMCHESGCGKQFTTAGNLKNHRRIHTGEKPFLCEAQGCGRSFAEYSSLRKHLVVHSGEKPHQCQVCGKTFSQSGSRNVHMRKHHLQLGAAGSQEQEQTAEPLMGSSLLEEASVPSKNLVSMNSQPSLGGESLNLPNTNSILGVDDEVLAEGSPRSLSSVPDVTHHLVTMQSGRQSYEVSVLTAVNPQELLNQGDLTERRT

The target in the next data set is T3, ZNF410 FL DEAED-to-AAAAA (Homo sapiens, UniProt Q86VK4 1-478, D143A;E144A;E146A;D147A).
T3 sequence: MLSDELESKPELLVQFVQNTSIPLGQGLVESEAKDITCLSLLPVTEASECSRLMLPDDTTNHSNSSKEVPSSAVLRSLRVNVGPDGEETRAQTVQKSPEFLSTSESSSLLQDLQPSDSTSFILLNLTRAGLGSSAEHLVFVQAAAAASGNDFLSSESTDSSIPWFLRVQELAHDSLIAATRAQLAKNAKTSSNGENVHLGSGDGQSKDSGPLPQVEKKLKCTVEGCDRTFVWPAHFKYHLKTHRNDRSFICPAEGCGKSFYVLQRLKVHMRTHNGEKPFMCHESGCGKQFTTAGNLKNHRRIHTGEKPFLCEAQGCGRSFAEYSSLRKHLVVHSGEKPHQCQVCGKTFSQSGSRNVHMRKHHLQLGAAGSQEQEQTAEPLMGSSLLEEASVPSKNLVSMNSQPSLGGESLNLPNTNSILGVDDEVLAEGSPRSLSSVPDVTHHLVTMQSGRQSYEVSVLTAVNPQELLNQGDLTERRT

B1: FAM 17-bp ZNF410 motif duplex (dsDNA)
DNA 1: CACATCCCATAATAATG
DNA 2: CATTATTATGGGATGTG
Consider B1, for which, in the data set with ZNF410 NT, the binding result is given as “no binding”. The binding signal in data set [1] was > 6 fold lower affinity than wild-type FL; with ZNF410 FL DEAED-to-AAAAA, > 4 fold higher affinity than wild-type FL.
